Measured values from paper PMC7721737, “Cytosolic sequestration of the vitamin D receptor as a therapeutic option for vitamin D-induced hypercalcemia” (Nature Communications, 2020).
Values belong to the binder of their own block, whether it stands above or below them.

How the values were obtained:
[1] = molecular target: T1, full-length human vitamin D receptor (hVDR, amino acid 1-427), His-tagged (human, UniProt P11473 1-427); test: SEC; mixed in stoichiometric amounts and purified on HiLoad Superdex 200 in 20 mM Tris pH 8.0, 75 mM NaCl, 75 mM KCl, 2 mM CHAPS, 5% glycerol, 4 mM MgSO4, 1 mM TCEP; heterodimer then used for HDX-MS (apo, 1,25D3, ZK); conditions: both partners purified
T1 construct: For microscale thermophoresis the protein was labelled with the Red-NHS second generation labelling kit (NanoTemper); also called NR1I1; hVDR full-length; source: E. coli BL21 DE3, purified (HisTrap, SEC)
T1 sequence (looked up): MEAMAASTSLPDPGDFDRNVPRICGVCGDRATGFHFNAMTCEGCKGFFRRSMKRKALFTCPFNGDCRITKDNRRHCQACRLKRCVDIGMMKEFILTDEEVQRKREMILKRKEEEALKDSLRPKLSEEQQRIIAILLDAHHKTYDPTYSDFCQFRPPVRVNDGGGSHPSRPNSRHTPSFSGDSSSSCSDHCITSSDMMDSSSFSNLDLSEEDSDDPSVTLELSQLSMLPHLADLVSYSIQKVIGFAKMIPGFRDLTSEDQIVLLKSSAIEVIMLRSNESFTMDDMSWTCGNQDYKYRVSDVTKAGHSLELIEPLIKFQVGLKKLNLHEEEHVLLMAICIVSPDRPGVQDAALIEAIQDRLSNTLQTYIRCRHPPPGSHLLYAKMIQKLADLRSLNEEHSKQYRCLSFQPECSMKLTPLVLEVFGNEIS

[2] = molecular target: T1, full-length human vitamin D receptor …; test: MST; Monolith NT.115; 10 nM Red-NHS labelled full-length hVDR with or without ZK; unlabelled WBP4 122-196 from 100 µM to 1 nM; 20 mM Hepes pH 7.5, 200 mM NaCl, 2% glycerol, 1 mM TCEP, 0.05% Tween 20; 25 °C; 1:1 fit, apparent Kd; conditions: both partners purified
[3] = molecular target: T2, full-length human vitamin D receptor (hVDR, amino acid 1-427), His-tagged (human, UniProt P11473 1-427); test: MST; ZK-bound VDR
T2 chain: T1 sequence (looked up)

[4] = molecular target: T3, ligand binding domain of hVDR (aa 118-427), His-tagged (human, UniProt P11473 118-427); test: SPR; Biacore T200, hRXRα LBD monomers amine-coupled on CM5 (400-500 RU); hVDR LBD 1-30 µM without ligand or with a 3-fold excess of 1,25D3 or ZK; 50 mM Tris pH 7.5, 150 mM NaCl, 1 mM TCEP, 0.005% Tween 20; steady state fit; conditions: both partners purified
T3 construct: also called hVDR LBD; source: E. coli BL21 DE3, purified (HisTrap, SEC)
T3 sequence (looked up): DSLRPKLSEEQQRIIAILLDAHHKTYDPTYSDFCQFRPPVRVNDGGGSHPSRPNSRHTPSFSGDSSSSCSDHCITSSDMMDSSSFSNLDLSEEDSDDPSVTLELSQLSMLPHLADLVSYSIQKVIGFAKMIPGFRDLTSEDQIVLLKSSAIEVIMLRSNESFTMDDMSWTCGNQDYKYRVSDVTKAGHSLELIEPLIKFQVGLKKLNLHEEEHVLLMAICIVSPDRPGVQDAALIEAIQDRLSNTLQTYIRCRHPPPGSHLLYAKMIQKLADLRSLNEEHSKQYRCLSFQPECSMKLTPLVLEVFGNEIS

binding result [1]: binds
B1: N-terminal domain truncated human RXRalpha (hRXRαΔNTD, amino acid 130-462), His-tagged (domain or fragment, UniProt P19793 130-462, looked up)
chain: FTKHICAICGDRSSGKHYGVYSCEGCKGFFKRTVRKDLTYTCRDNKDCLIDKRQRNRCQYCRYQKCLAMGMKREAVQEERQRGKDRNENEVESTSSANEDMPVERILEAELAVEPKTETYVEANMGLNPSSPNDPVTNICQAADKQLFTLVEWAKRIPHFSELPLDDQVILLRAGWNELLIASFSHRSIAVKDGILLATGLHVHRNSAHSAGVGAIFDRVLTELVSKMRDMQMDKTELGCLRAIVLFNPDSKGLSNPAEVEALREKVYASLEAYCKHKYPEQPGRFAKLLLRLPALRSIGLKCLEHLFFFKLIGDTPIDTFLMEMLEAPHQMT
notes: source: E. coli BL21 DE3, purified (HisTrap, SEC)

fold increase of the affinity in the presence of ZK against without ZK [2]: ~2 fold
Kd [3]: 11 µM
B2: hWBP4 polypeptide (amino acid 122-196) encompassing the two WW domains (domain or fragment, human, UniProt O75554 122-196, looked up)
chain: DPSKGRWVEGITSEGYHYYYDLISGASQWEKPEGFQGDLKKTAVKTVWVEGLSEDGFTYYYNTETGESRWEKPDD
notes: also called FBP21; source: E. coli BL21 DE3, purified (glutathione sepharose, thrombin cleavage, SEC); not shown: GST, N-terminal, cleaved

binding result [4]: binds
B3: ligand binding domain of hRXRα (aa 223-462), His-tagged (domain or fragment, human, UniProt P19793 223-462, looked up)
chain: TSSANEDMPVERILEAELAVEPKTETYVEANMGLNPSSPNDPVTNICQAADKQLFTLVEWAKRIPHFSELPLDDQVILLRAGWNELLIASFSHRSIAVKDGILLATGLHVHRNSAHSAGVGAIFDRVLTELVSKMRDMQMDKTELGCLRAIVLFNPDSKGLSNPAEVEALREKVYASLEAYCKHKYPEQPGRFAKLLLRLPALRSIGLKCLEHLFFFKLIGDTPIDTFLMEMLEAPHQMT
notes: Immobilised as monomers on the SPR chip; also called hRXRα LBD; source: E. coli BL21 DE3, purified (HisTrap, SEC)
